± gives the half width of the 95% confidence interval.
What was measured:
[1] = folding stability dG unfold from trypsin proteolysis; higher = more stable
Procedure, shortened: (§1)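 K50 was inferred by Bayesian fitting of sequencing counts obtained after protease digestion of designed mini-proteins. Unfolding free energy was derived by comparison with a sequence-predicted unfolded-state K50 and a shared folded-state K50, for each protease or both combined. The mini-proteins were under 80 residues, had no cysteine, were carried in a PA-tagged cDNA display construct, and were kept only if AlphaFold2 dimer inter-PAE exceeded 15.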

[2] = folding stability dG unfold from chymotrypsin proteolysis; higher = more stable
Procedure, shortened: as §1

[3] = folding stability dG unfold (combined trypsin and chymotrypsin); higher = more stable
Procedure, shortened: as §1

Sequence	folding stability dG unfold [1] [kcal/mol]	folding stability dG unfold [2] [kcal/mol]	folding stability dG unfold [3] [kcal/mol]
SAGGSAGGSIEIFKSPEGWYVRIWFPGKPQVIPIDDAEDLKNFEIPIPNGRPIKVEILPPKDLSAGGSAGGS [r12_730_TrROS]	1.66 ± 0.047	2.32 ± 0.032	2.13 ± 0.059
SAGGKKFKIKEITITYNPDADTVTMTVKLDDGTTVELTFNKETKKLTVKVINKDTGEEKEFEFTLPDSAGGS [r8_363_TrROS_Hall]	3.1 ± 0.17	4.9 ± 0.25	4.77 ± 0.24
SAGGSAGGSKTITVRVKITLPNGETIEVEAEITVRPDGSITITLPDGSTITLPPGAKVEIEPVSAGGSAGGS [r20_227_TrROS_Hall]	2.99 ± 0.12	2.51 ± 0.17	2.85 ± 0.26
SEPLTPEEVEKFAEWIAKELNEEHGKEVKVEVEYHPDDGYFRAEIEIPNGRRIEITFNPEFGQLDIEVEDSA [r9_9_TrROS]	1.31 ± 0.18	2.36 ± 0.062	1.71 ± 0.27
SAGGSAGGFIEYDPKTGTITVTFPSSVSPEDVRAAIEAAGFPATPVAYSYDPSPPVRTVTFKVASAGGSAGG [r6_396_JUSTAS]	1.14 ± 0.02	0.832 ± 0.11	1.06 ± 0.092
SMEMTPEERLLALLREARKKHPGKKIVLSVEEIEELLGVDLSAEEIAKLLKEELGIDEVEIVEEEEPEEESA [r9_738_TrROS_Hall]	2.11 ± 0.056	3.375 ± 0.031	3.01 ± 0.069
SAGGSVITEEEKEKIKKEYPNLDIKLKALKPGETITYPNGTKVYGSPNGFLVEITNPDGTKTVIKESAGGSA [r2_166_JUSTAS]	0.638 ± 0.026	0.498 ± 0.16	0.604 ± 0.11
SNWITLKHTIKHPGREIKIEITAQPNPGGPYWIQVNIEVRDPNGEKEEVEITVPFRGMSIEDFLKNAADASA [r9_217_TrROS]	2.85 ± 0.12	4.46 ± 0.062	3.78 ± 0.29
SAGGSAGGSAGGWYRIEIEFGNKPREYVVPGAPPDEAADMLQDPGIKNVKVEPLPPEQLKSAGGSAGGSAGG [r7_502_TrROS]	-0.817 ± 0.65	0.537 ± 0.16	0.174 ± 0.25
SAGGLSLEELADELAQENGWEITEAEPIEFTPNTIRFEVTVRMPDGKRRTIEIEIEIPPPKPPDQPKSAGGS [r8_309_TrROS]	1.15 ± 0.067	1.63 ± 0.058	1.39 ± 0.13
SAGGPMKPFLKNFSGPEEAIAFVNKLREELKGPVGLTLIFPDGSVIEVVDPQKLESIDNFEVIVTVSESAGG [r13_620_JUSTAS]	1.39 ± 0.039	1.8 ± 0.085	1.69 ± 0.096
SAGGSAGGMYKVTITVTDPATGKTVATETLTLESEEEAKEYVEAVKKELPSSLTVSATITKVPESAGGSAGG [r6_690_JUSTAS]	4.77 ± 0.46	4.41 ± 0.072	4.58 ± 0.12
SAGGSAGGSAGGEELEVSVSVSVTEVDGKLYLTATVTIDGKEYTFTAELTVTLPPPPPEESAGGSAGGSAGG [r7_413_TrROS_Hall]	2.77 ± 0.32	3.91 ± 0.19	3.71 ± 0.28
SAGGSAGGSASSVPARLPDATVLEVTTDPATGLQTALLRFPDGSEVVVTHYPDGSVEVRPLSAGGSAGGSAG [r3_348_JUSTAS]	1.84 ± 0.062	2.67 ± 0.028	2.47 ± 0.099
SAGGIIPIENASWDELLNALKEAAEKGDPNVTITFQDPGRPYWIQIDPDENNIEVEHPNGETWRFKISAGGS [r16_481_TrROS]	0.749 ± 0.089	0.995 ± 0.14	0.905 ± 0.18
SAGGPPVIRFPTAEIPASGTIEDIVAAIERATGEPLPEELVEQILNGKTIEEIIELLKKRGYPVEYLSAGGS [r16_601_JUSTAS]	3.84 ± 0.14	3.11 ± 0.074	3.33 ± 0.088

Sequence	folding stability dG unfold [1] [kcal/mol]	folding stability dG unfold [2] [kcal/mol]	folding stability dG unfold [3] [kcal/mol]
SAGGSAGGSAGKYYIIKYPGKVEIIPESEVEKIIEANPNVEIEEFESKEEALKALEKALSSAGGSAGGSAGG [r11_60_TrMRF]	3.95 ± 0.21	4.24 ± 0.083	4.22 ± 0.09
SAGGSARWFLIRIEFVFGGEPRTFSVLIDVDPGEIEIEIPPELQKKGFQIKDIEIWPLPPEDLKKLSAGGSA [r15_853_TrROS]	2.22 ± 0.04	3.18 ± 0.11	2.84 ± 0.18
SAGGITIRGMPWEWAEEIAKTLAQEGYRLKDVEVEEDPPDGYYSVTVQQRDPETGKPKKPVTISIPPSAGGS [r16_750_TrROS]	0.594 ± 0.13	0.0769 ± 0.44	0.515 ± 0.43
PETVTLTVEIEIEVRGPDGKPLTPEQVEELAKALAEELAAELGLEVEVTVTVEPVGPDGKYRITVTVTIRPS [r1_231_TrROS_Hall]	4.45 ± 0.34	5.69 ± 0.86	> 6
SAGGMTPEEARKLAEELAKKLEEEGKEVEVKVEVNKDGKVVKIEIKPEGEKVTITLPDGEKVLELELPSAGG [r13_693_TrROS_Hall]	1.09 ± 0.048	1 ± 0.089	1.03 ± 0.25
SAGGSAGGSAGGGVEVLSAERRRIPETGLVLVVIREKEPLKPIVVLMPEEDAVVFLKHFSAGGSAGGSAGGS [r10_988_TrMRF]	0.14 ± 0.094	0.92 ± 0.1	0.703 ± 0.091
SAGGGSMTTVRLTREINLPSSVSDEEIIEEIKEELPENYEILEVKIEKDPKTGKYYIEAEVKIPKLGSAGGS [r16_396_JUSTAS]	0.904 ± 0.027	2.269 ± 0.02	1.88 ± 0.056
SAGGSAGGSAGSSMTTVTVTITDTGSGKTTTTELDVPVSEVQAVIDELSPSPTLTITVVQSAGGSAGGSAGG [r17_50_JUSTAS]	1.84 ± 0.049	1.51 ± 0.028	1.64 ± 0.043
SAGGSAGGSKGKKITIILPPGMPPDAIKNWLAPLGINITIEPIPVVKPKRDPDDGEETYEPYGSAGGSAGGS [r12_80_TrROS]	0.73 ± 0.1	0.596 ± 0.24	0.579 ± 0.2
SAKRVNVEIWIPGDWDEIQEIAEDINFPVEIERNPDKPDMYRITFTFPTPEKAPKILDALNKHGMQIEISAG [r14_745_TrROS]	1.33 ± 0.063	1.89 ± 0.081	1.64 ± 0.17
SAGGSTVTVTVRRRVRVEVNGELREFEVEVTVTVRLPPPPPVIELPPEQVTRIEWDEETQELRVEVDSAGGS [r8_28_TrROS_Hall]	2.98 ± 0.21	3.33 ± 0.063	3.28 ± 0.21
SPIVKVRLRIELPDGKVLELELDVPLPLIKEALSKLIGEKYKVKIVKIDPIDPEKLKPGSTIEITLKAEPSA [r9_803_TrMRF]	3.72 ± 0.28	4.76 ± 0.14	4.59 ± 0.2
SAGGEEEILRQIREAAKKGEEVTIVFPKGMSIEELKKLIEEELGVEVEEIKVEKNENGELTVTIKVKSAGGS [r16_318_TrROS_Hall]	4.33 ± 0.24	2.99 ± 0.11	4.07 ± 0.26
SAGGSAGGSAGLFIPETGLLVVYDPAPGTLHVFRITGGDGLEIEPVGEVEVDPDNPELGTAFSAGGSAGGSA [r18_448_TrMRF]	-0.284 ± 0.29	0.464 ± 0.16	0.327 ± 0.18
SAGGSAGGSAGPKVVLVPVKVVQKLLGVKIPENSRVLVLLEKDKVKAVLVFPVLPSPENPSAGGSAGGSAGG [r11_616_TrMRF]	1.26 ± 0.12	1.55 ± 0.07	1.54 ± 0.17

Source: the supplement of paper PMC12764529
